{"source": "the MegaScale stability set (Tsuboyama et al. 2023)", "parents": {"B1": {"name": "r11_951_TrROS_Hall (parent)", "chain": "KKKYVIKVYFEDTGKEVEIEAESKEEALEAAKRLAEELGLKIKKVEIYP"}}, "data": [{"variants_of": "B1", "assay": "folding stability dG (cDNA display proteolysis); higher = more stable", "conditions": "PBS, room temperature", "units": {"folding stability dG": "kcal/mol"}, "values": [{"variant": "KKKYVIKVYFEDTGKEVEEEAESKEEALEAAKRLAEELGLKIKKVEIYP", "note": "[I19E]", "folding stability dG": 3.36}, {"variant": "KKKYVIKVYFEDTGKEVEKEAESKEEALEAAKRLAEELGLKIKKVEIYP", "note": "[I19K]", "folding stability dG": 3.18}, {"variant": "KKKYVIKVYFEDTGKEVETEAESKEEALEAAKRLAEELGLKIKKVEIYP", "note": "[I19T]", "folding stability dG": 3.98}, {"variant": "KKKYVIKVYFEDTGKEVEVEAESKEEALEAAKRLAEELGLKIKKVEIYP", "note": "[I19V]", "folding stability dG": 4.19}, {"variant": "KKKYVIKVYFEDTGKEVEGEAESKEEALEAAKRLAEELGLKIKKVEIYP", "note": "[I19G]", "folding stability dG": 3.31}, {"variant": "KKKYVIKVYFEDTGKEVEDEAESKEEALEAAKRLAEELGLKIKKVEIYP", "note": "[I19D]", "folding stability dG": 3.07}, {"variant": "KKKYVIKVYFEDTGKEVEAEAESKEEALEAAKRLAEELGLKIKKVEIYP", "note": "[I19A]", "folding stability dG": 3.98}, {"variant": "KKKYVIKVYFEDTGKEVEHEAESKEEALEAAKRLAEELGLKIKKVEIYP", "note": "[I19H]", "folding stability dG": 3.61}, {"variant": "KKKYVIKVYFEDTGKEVEWEAESKEEALEAAKRLAEELGLKIKKVEIYP", "note": "[I19W]", "folding stability dG": 4.51}, {"variant": "KKKYVIKVYFEDTGKEVEREAESKEEALEAAKRLAEELGLKIKKVEIYP", "note": "[I19R]", "folding stability dG": 3.57}, {"variant": "KKKYVIKVYFEDTGKEVENEAESKEEALEAAKRLAEELGLKIKKVEIYP", "note": "[I19N]", "folding stability dG": 2.66}, {"variant": "KKKYVIKVYFEDTGKEVEYEAESKEEALEAAKRLAEELGLKIKKVEIYP", "note": "[I19Y]", "folding stability dG": 4.49}, {"variant": "KKKYVIKVYFEDTGKEVEQEAESKEEALEAAKRLAEELGLKIKKVEIYP", "note": "[I19Q]", "folding stability dG": 3.59}, {"variant": "KKKYVIKVYFEDTGKEVEFEAESKEEALEAAKRLAEELGLKIKKVEIYP", "note": "[I19F]", "folding stability dG": 4.33}, {"variant": "KKKYVIKVYFEDTGKEVELEAESKEEALEAAKRLAEELGLKIKKVEIYP", "note": "[I19L]", "folding stability dG": 4.5}, {"variant": "KKKYVIKVYFEDTGKEVEPEAESKEEALEAAKRLAEELGLKIKKVEIYP", "note": "[I19P]", "folding stability dG": 0.94}, {"variant": "KKKYVIKVYFEDTGKEVEMEAESKEEALEAAKRLAEELGLKIKKVEIYP", "note": "[I19M]", "folding stability dG": 4.5}, {"variant": "KKKYVIKVYFEDTGKEVESEAESKEEALEAAKRLAEELGLKIKKVEIYP", "note": "[I19S]", "folding stability dG": 3.56}, {"variant": "KKKYVIKVYFEDTGKEVECEAESKEEALEAAKRLAEELGLKIKKVEIYP", "note": "[I19C]", "folding stability dG": 4.1}, {"variant": "KKKYVIKVYFEDTGKENEIEAESKEEALEAAKRLAEELGLKIKKVEIYP", "note": "[V17N]", "folding stability dG": 3.71}, {"variant": "KKKYVIKVYFEDTGKEWEIEAESKEEALEAAKRLAEELGLKIKKVEIYP", "note": "[V17W]", "folding stability dG": 4.53}, {"variant": "KKKYVIKVYFEDTGKEHEIEAESKEEALEAAKRLAEELGLKIKKVEIYP", "note": "[V17H]", "folding stability dG": 4.4}, {"variant": "KKKYVIKVYFEDTGKEKEIEAESKEEALEAAKRLAEELGLKIKKVEIYP", "note": "[V17K]", "folding stability dG": 4.07}, {"variant": "KKKYVIKVYFEDTGKETEIEAESKEEALEAAKRLAEELGLKIKKVEIYP", "note": "[V17T]", "folding stability dG": 4.29}, {"variant": "KKKYVIKVYFEDTGKEQEIEAESKEEALEAAKRLAEELGLKIKKVEIYP", "note": "[V17Q]", "folding stability dG": 4}, {"variant": "KKKYVIKVYFEDTGKEGEIEAESKEEALEAAKRLAEELGLKIKKVEIYP", "note": "[V17G]", "folding stability dG": 4.05}, {"variant": "KKKYVIKVYFEDTGKELEIEAESKEEALEAAKRLAEELGLKIKKVEIYP", "note": "[V17L]", "folding stability dG": 4.42}, {"variant": "KKKYVIKVYFEDTGKEFEIEAESKEEALEAAKRLAEELGLKIKKVEIYP", "note": "[V17F]", "folding stability dG": 4.42}, {"variant": "KKKYVIKVYFEDTGKEMEIEAESKEEALEAAKRLAEELGLKIKKVEIYP", "note": "[V17M]", "folding stability dG": 4.28}, {"variant": "KKKYVIKVYFEDTGKEREIEAESKEEALEAAKRLAEELGLKIKKVEIYP", "note": "[V17R]", "folding stability dG": 4.29}, {"variant": "KKKYVIKVYFEDTGKEYEIEAESKEEALEAAKRLAEELGLKIKKVEIYP", "note": "[V17Y]", "folding stability dG": 4.36}, {"variant": "KKKYVIKVYFEDTGKESEIEAESKEEALEAAKRLAEELGLKIKKVEIYP", "note": "[V17S]", "folding stability dG": 4.23}, {"variant": "KKKYVIKVYFEDTGKEIEIEAESKEEALEAAKRLAEELGLKIKKVEIYP", "note": "[V17I]", "folding stability dG": 4.4}, {"variant": "KKKYVIKVYFEDTGKEPEIEAESKEEALEAAKRLAEELGLKIKKVEIYP", "note": "[V17P]", "folding stability dG": 3.58}, {"variant": "KKKYVIKVYFEDTGKEEEIEAESKEEALEAAKRLAEELGLKIKKVEIYP", "note": "[V17E]", "folding stability dG": 4.29}, {"variant": "KKKYVIKVYFEDTGKEVEIEALSKEEALEAAKRLAEELGLKIKKVEIYP", "note": "[E22L]", "folding stability dG": 4.26}, {"variant": "KKKYVIKVYFEDTGKEVEIEAKSKEEALEAAKRLAEELGLKIKKVEIYP", "note": "[E22K]", "folding stability dG": 4.05}, {"variant": "KKKYVIKVYFEDTGKEVEIEAHSKEEALEAAKRLAEELGLKIKKVEIYP", "note": "[E22H]", "folding stability dG": 4.49}, {"variant": "KKKYVIKVYFEDTGKEVEIEACSKEEALEAAKRLAEELGLKIKKVEIYP", "note": "[E22C]", "folding stability dG": 4.52}, {"variant": "KKKYVIKVYFEDTGKEVEIEAGSKEEALEAAKRLAEELGLKIKKVEIYP", "note": "[E22G]", "folding stability dG": 4.32}, {"variant": "KKKYVIKVYFEDTGKEVEIEAMSKEEALEAAKRLAEELGLKIKKVEIYP", "note": "[E22M]", "folding stability dG": 4.07}, {"variant": "KKKYVIKVYFEDTGKEVEIEAFSKEEALEAAKRLAEELGLKIKKVEIYP", "note": "[E22F]", "folding stability dG": 4.46}, {"variant": "KKKYVIKVYFEDTGKEVEIEAQSKEEALEAAKRLAEELGLKIKKVEIYP", "note": "[E22Q]", "folding stability dG": 4.11}, {"variant": "KKKYVIKVYFEDTGKEVEIEAASKEEALEAAKRLAEELGLKIKKVEIYP", "note": "[E22A]", "folding stability dG": 4.36}, {"variant": "KKKYVIKVYFEDTGKEVEIEAPSKEEALEAAKRLAEELGLKIKKVEIYP", "note": "[E22P]", "folding stability dG": 4.4}, {"variant": "KKKYVIKVYFEDTGKEVEIEADSKEEALEAAKRLAEELGLKIKKVEIYP", "note": "[E22D]", "folding stability dG": 4.26}, {"variant": "KKKYVIKVYFEDTGKEVEIEARSKEEALEAAKRLAEELGLKIKKVEIYP", "note": "[E22R]", "folding stability dG": 4.18}, {"variant": "KKKYVIKVYFEDTGKEVEIEANSKEEALEAAKRLAEELGLKIKKVEIYP", "note": "[E22N]", "folding stability dG": 4.38}, {"variant": "KKKYVIKVYFEDTGKEVEIEAISKEEALEAAKRLAEELGLKIKKVEIYP", "note": "[E22I]", "folding stability dG": 4.11}, {"variant": "KKKYVIKVYFEDTGKEVEIMAESKEEALEAAKRLAEELGLKIKKVEIYP", "note": "[E20M]", "folding stability dG": 4.42}, {"variant": "KKKYVIKVYFEDTGKEVEINAESKEEALEAAKRLAEELGLKIKKVEIYP", "note": "[E20N]", "folding stability dG": 4.22}, {"variant": "KKKYVIKVYFEDTGKEVEITAESKEEALEAAKRLAEELGLKIKKVEIYP", "note": "[E20T]", "folding stability dG": 4.4}, {"variant": "KKKYVIKVYFEDTGKEVEISAESKEEALEAAKRLAEELGLKIKKVEIYP", "note": "[E20S]", "folding stability dG": 4.22}]}]}
